Data from patent US20140087995A1 (published 2014).
Numbered stars: 1 amine (or outer) side, 2 acyl side, 3 side chain; on linkers, the order of the positions; unused ones are H or OH. Bridge positions count the residues as written; N and C are the ends. Side chains are listed from the residue outwards. Ends that are not written are not given here. * marks the point of attachment. C20 diacid = O=C(O)CCCCCCCCCCCCCCCCCCC(=O)*; γGlu = O=C(O)[C@H](CCC(=O)[*:2])N[*:1]; AEEA = NCCOCCOCC(=O)O

T1: human calcitonin receptor (human, UniProt P30988 25-474)
T1 construct: whole, on cells; Used as membranes prepared from the transfected cells; also called hCTR; hCT
T1 sequence (looked up): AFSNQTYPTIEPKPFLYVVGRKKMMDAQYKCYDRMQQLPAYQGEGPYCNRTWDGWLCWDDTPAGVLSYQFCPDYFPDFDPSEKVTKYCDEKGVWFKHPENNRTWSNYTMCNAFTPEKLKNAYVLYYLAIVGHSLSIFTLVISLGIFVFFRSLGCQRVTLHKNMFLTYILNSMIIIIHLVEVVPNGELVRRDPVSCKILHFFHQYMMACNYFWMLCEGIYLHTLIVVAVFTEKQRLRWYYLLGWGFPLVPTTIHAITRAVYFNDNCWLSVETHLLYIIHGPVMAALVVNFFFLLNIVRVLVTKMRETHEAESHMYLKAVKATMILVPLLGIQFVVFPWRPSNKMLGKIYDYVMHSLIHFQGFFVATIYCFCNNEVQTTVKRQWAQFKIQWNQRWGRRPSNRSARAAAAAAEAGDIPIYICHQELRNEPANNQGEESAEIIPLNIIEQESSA

T2: rat calcitonin receptor (rat, UniProt P32214 25-516)
T2 construct: whole, on cells; Used as membranes prepared from the transfected cells; also called rCTR; rCT
T2 sequence (looked up): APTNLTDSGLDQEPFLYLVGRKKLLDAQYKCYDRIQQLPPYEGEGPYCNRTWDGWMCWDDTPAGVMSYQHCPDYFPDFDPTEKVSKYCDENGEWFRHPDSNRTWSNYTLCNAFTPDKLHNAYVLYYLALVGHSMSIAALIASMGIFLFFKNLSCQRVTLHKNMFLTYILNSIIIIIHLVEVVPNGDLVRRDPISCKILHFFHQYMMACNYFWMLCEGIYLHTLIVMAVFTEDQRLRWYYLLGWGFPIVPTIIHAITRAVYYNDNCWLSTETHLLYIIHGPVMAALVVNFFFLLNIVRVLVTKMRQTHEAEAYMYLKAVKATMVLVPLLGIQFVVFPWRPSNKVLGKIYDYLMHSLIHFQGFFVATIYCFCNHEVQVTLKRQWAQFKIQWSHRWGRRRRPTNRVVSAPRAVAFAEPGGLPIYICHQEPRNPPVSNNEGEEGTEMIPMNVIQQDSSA


Columns and labels:
[1] = molecular target: T1, human calcitonin receptor; assay: ratio of binding IC50 at human calcitonin receptor to IC50 at human amylin receptor (reference)
Experimental: The resulting pellet was resuspended, homogenized and centrifuged (20.000 rpm, 15 min) in a buffer containing 20 mM Na-HEPES and 0.1 mM EDTA (pH 7.4, buffer 2). The resulting pellet was resuspended in buffer 2 and protein concentration was measured (BCA protein Assay, Pierce). The homogenate was kept cold during the whole procedure. The membranes were kept at −80° C. until use. The assay was performed in a 384 well Optiplate (PerkinElmer) in a total volume of 40 ul. Membranes were mixed with SPA beads. Final concentration of membranes 35 ng/μL final and SPA beads was 0.05 mg/well. Test-compounds were dissolved in DMSO and further diluted in assay buffer (50 mM Hepes, pH 7.4, 1 mM CaCl2, 5 mM MgCl₂, 0.1% OA and 0.02% Tween20). […] The final mixture was incubated with shaking at 400 rpm for 120 min at 25° C. prior to centrifugation (1500 rpm, 10 min). Samples were analyzed on TopCounter™ (Packard). The IC₅₀ was calculated using (one site binding competition analysis) GraphPad Prism5 as a measure of receptor affinity.
Membranes were prepared in the following way; the cells were rinsed with PBS and incubated with Versene for approximately 5 min before harvesting. The cells were flushed with PBS and the cell-suspension was centrifuged for 5 min at 1000 rpm. Cells were homogenized (Ultrathurrax) in a buffer containing 20 mM Na-HEPES and 10 mM EDTA (pH 7.4) and centrifuged at 20.000 rpm for 15 min. The resulting pellet was resuspended, homogenized and centrifuged (20.000 rpm, 15 min) in a buffer containing 20 mM Na-HEPES and 0.1 mM EDTA (pH 7.4, buffer 2). The resulting pellet was resuspended in buffer 2 and protein concentration was measured (BCA protein Assay, Pierce). The homogenate was kept cold during the whole procedure. The membranes were kept at −80° C. until use. Assay was performed in a 384 well Optiplate (PerkinElmer) in a total volume of 40 ul. Membranes were mixed with SPA beads.

rat calcitonin receptor [2] = molecular target: T2, rat calcitonin receptor; assay: SPA competition with 125I-calcitonin, membranes with rat calcitonin receptor (Assay VIII)
rat calcitonin receptor [3] = molecular target: T2, rat calcitonin receptor; assay: ratio of binding IC50 at rat calcitonin receptor to IC50 at rat amylin receptor (reference)

Row | Binder | Ratio hCT/hAmylin binding [1] | IC50 (rat calcitonin receptor [2]) | Ratio rCT/rAmylin binding (rat calcitonin receptor [3])
1 | K([AEEA-γGlu-C20 diacid])CNTATCATQRLAGFLRHSSPNFGAIPSSTPVGSNTY-NH2 (disulfide 2-7; N-terminus assumed; SMILES CC[C@H](C)[C@H](NC(=O)[C@H](C)NC(=O)CNC(=O)[C@H](Cc1ccccc1)NC(=O)[C@H](CC(N)=O)NC(=O)[C@@H]1CCCN1C(=O)[C@H](CO)NC(=O)[C@H](CO)NC(=O)[C@H](Cc1c[nH]cn1)NC(=O)[C@H](CCCNC(=N)N)NC(=O)[C@H](CC(C)C)NC(=O)[C@H](Cc1ccccc1)NC(=O)CNC(=O)[C@H](C)NC(=O)[C@H](CC(C)C)NC(=O)[C@H](CCCNC(=N)N)NC(=O)[C@H](CCC(N)=O)NC(=O)[C@@H](NC(=O)[C@H](C)NC(=O)[C@@H]1CSSC[C@H](NC(=O)[C@@H](N)CCCCNC(=O)COCCOCCNC(=O)CC[C@H](NC(=O)CCCCCCCCCCCCCCCCCCC(=O)O)C(=O)O)C(=O)N[C@@H](CC(N)=O)C(=O)N[C@@H]([C@@H](C)O)C(=O)N[C@@H](C)C(=O)N[C@@H]([C@@H](C)O)C(=O)N1)[C@@H](C)O)C(=O)N1CCC[C@H]1C(=O)N[C@@H](CO)C(=O)N[C@@H](CO)C(=O)N[C@H](C(=O)N1CCC[C@H]1C(=O)N[C@H](C(=O)NCC(=O)N[C@@H](CO)C(=O)N[C@@H](CC(N)=O)C(=O)N[C@H](C(=O)N[C@@H](Cc1ccc(O)cc1)C(N)=O)[C@@H](C)O)C(C)C)[C@@H](C)O, Analogue of human amylin; disulfide and C-terminal amide as told for h-amylin; also called compound 71) | 32 | 44.8 nM | 162
2 | K([AEEA-γGlu-C20 diacid])CNTATCATQRLAHFLRHSSPNFGAIPSSTNVGRNTY-NH2 (disulfide 2-7; N-terminus assumed; SMILES CC[C@H](C)[C@H](NC(=O)[C@H](C)NC(=O)CNC(=O)[C@H](Cc1ccccc1)NC(=O)[C@H](CC(N)=O)NC(=O)[C@@H]1CCCN1C(=O)[C@H](CO)NC(=O)[C@H](CO)NC(=O)[C@H](Cc1c[nH]cn1)NC(=O)[C@H](CCCNC(=N)N)NC(=O)[C@H](CC(C)C)NC(=O)[C@H](Cc1ccccc1)NC(=O)[C@H](Cc1c[nH]cn1)NC(=O)[C@H](C)NC(=O)[C@H](CC(C)C)NC(=O)[C@H](CCCNC(=N)N)NC(=O)[C@H](CCC(N)=O)NC(=O)[C@@H](NC(=O)[C@H](C)NC(=O)[C@@H]1CSSC[C@H](NC(=O)[C@@H](N)CCCCNC(=O)COCCOCCNC(=O)CC[C@H](NC(=O)CCCCCCCCCCCCCCCCCCC(=O)O)C(=O)O)C(=O)N[C@@H](CC(N)=O)C(=O)N[C@@H]([C@@H](C)O)C(=O)N[C@@H](C)C(=O)N[C@@H]([C@@H](C)O)C(=O)N1)[C@@H](C)O)C(=O)N1CCC[C@H]1C(=O)N[C@@H](CO)C(=O)N[C@@H](CO)C(=O)N[C@H](C(=O)N[C@@H](CC(N)=O)C(=O)N[C@H](C(=O)NCC(=O)N[C@@H](CCCNC(=N)N)C(=O)N[C@@H](CC(N)=O)C(=O)N[C@H](C(=O)N[C@@H](Cc1ccc(O)cc1)C(N)=O)[C@@H](C)O)C(C)C)[C@@H](C)O, Analogue of human amylin; disulfide and C-terminal amide as told for h-amylin; also called compound 84) | 120 | 477 nM | 94.3
3 | K([AEEA-γGlu-C20 diacid])CNTATCATQRLAHFLRHSSPNFGAIPSSTNVGHNTY-NH2 (disulfide 2-7; N-terminus assumed; SMILES CC[C@H](C)[C@H](NC(=O)[C@H](C)NC(=O)CNC(=O)[C@H](Cc1ccccc1)NC(=O)[C@H](CC(N)=O)NC(=O)[C@@H]1CCCN1C(=O)[C@H](CO)NC(=O)[C@H](CO)NC(=O)[C@H](Cc1c[nH]cn1)NC(=O)[C@H](CCCNC(=N)N)NC(=O)[C@H](CC(C)C)NC(=O)[C@H](Cc1ccccc1)NC(=O)[C@H](Cc1c[nH]cn1)NC(=O)[C@H](C)NC(=O)[C@H](CC(C)C)NC(=O)[C@H](CCCNC(=N)N)NC(=O)[C@H](CCC(N)=O)NC(=O)[C@@H](NC(=O)[C@H](C)NC(=O)[C@@H]1CSSC[C@H](NC(=O)[C@@H](N)CCCCNC(=O)COCCOCCNC(=O)CC[C@H](NC(=O)CCCCCCCCCCCCCCCCCCC(=O)O)C(=O)O)C(=O)N[C@@H](CC(N)=O)C(=O)N[C@@H]([C@@H](C)O)C(=O)N[C@@H](C)C(=O)N[C@@H]([C@@H](C)O)C(=O)N1)[C@@H](C)O)C(=O)N1CCC[C@H]1C(=O)N[C@@H](CO)C(=O)N[C@@H](CO)C(=O)N[C@H](C(=O)N[C@@H](CC(N)=O)C(=O)N[C@H](C(=O)NCC(=O)N[C@@H](Cc1c[nH]cn1)C(=O)N[C@@H](CC(N)=O)C(=O)N[C@H](C(=O)N[C@@H](Cc1ccc(O)cc1)C(N)=O)[C@@H](C)O)C(C)C)[C@@H](C)O, Analogue of human amylin; disulfide and C-terminal amide as told for h-amylin; also called compound 80) | 68.1 | 60.4 nM | 36.2
4 | K([AEEA-γGlu-C20 diacid])CNTATCATQRLAHFLRHSSPNFGAIPSSTNVGPNTY-NH2 (disulfide 2-7; N-terminus assumed; SMILES CC[C@H](C)[C@H](NC(=O)[C@H](C)NC(=O)CNC(=O)[C@H](Cc1ccccc1)NC(=O)[C@H](CC(N)=O)NC(=O)[C@@H]1CCCN1C(=O)[C@H](CO)NC(=O)[C@H](CO)NC(=O)[C@H](Cc1c[nH]cn1)NC(=O)[C@H](CCCNC(=N)N)NC(=O)[C@H](CC(C)C)NC(=O)[C@H](Cc1ccccc1)NC(=O)[C@H](Cc1c[nH]cn1)NC(=O)[C@H](C)NC(=O)[C@H](CC(C)C)NC(=O)[C@H](CCCNC(=N)N)NC(=O)[C@H](CCC(N)=O)NC(=O)[C@@H](NC(=O)[C@H](C)NC(=O)[C@@H]1CSSC[C@H](NC(=O)[C@@H](N)CCCCNC(=O)COCCOCCNC(=O)CC[C@H](NC(=O)CCCCCCCCCCCCCCCCCCC(=O)O)C(=O)O)C(=O)N[C@@H](CC(N)=O)C(=O)N[C@@H]([C@@H](C)O)C(=O)N[C@@H](C)C(=O)N[C@@H]([C@@H](C)O)C(=O)N1)[C@@H](C)O)C(=O)N1CCC[C@H]1C(=O)N[C@@H](CO)C(=O)N[C@@H](CO)C(=O)N[C@H](C(=O)N[C@@H](CC(N)=O)C(=O)N[C@H](C(=O)NCC(=O)N1CCC[C@H]1C(=O)N[C@@H](CC(N)=O)C(=O)N[C@H](C(=O)N[C@@H](Cc1ccc(O)cc1)C(N)=O)[C@@H](C)O)C(C)C)[C@@H](C)O, Analogue of human amylin; disulfide and C-terminal amide as told for h-amylin; also called compound 68) | 64.4 | 28.5 nM | 122
